# Experiment: label from the status in PepcDB records
row,Sequence,protein production
1,STERRRDELSEEINNLREKVMKQSEENNNLQSQVQKLTEENTTLREQVEPTPEDEDDDIELRGAAAAAAPPPPIEEECPEDLPEKFDGNPDMLAPFMAQCQIFMEKSTRDFSVDRVRVCFVTSMMTGRAARWASAKLERSHYLMHNYPAFMMEMKHVFEDPQRREVAKRKIRRLRQGMGSVIDYSNAFQMIAQDLDWNEPALIDQYHEGLSDHIQEELSHLEVAKSLSALIGQCIHIERRLARAAAARKPRSPPRALVLPHIASHHQVDPTEPVGGARMRLTQEEKERRRKLNLCLYCGTGGHYADNCPAKASKSSPAGNSPAPL,not failed
2,STMSGYLYRSKGSKKPWKHLWFVIKNKVLYTYAASEDVAALESQPLLGFTVTLVKDENSESKVFQLLHKGMVFYVFKADDAHSTQRWIDAFQEGTV,not failed
3,STQVSQATSQPINFQVQKDGSSEKSHMDDYMQHPGKVIKQNNKYYFQTVLNNASFWKEYKFYNANNQELATTVVNDNKKADTRTINVAVEPGYKSLTTKVHIVVPQINYNHRYTTHLEFEKAIPTLADAAK,not failed
4,STRFPGVAIYLVEPRMGRSRRAFLTGLARSKGFRVLDACSSEATHVVMEETSAEEAVSWQERRMAAAPPGCTPPALLDISWLTESLGAGQPVPVECRHRLEVAGPRKGPLSPAWMPAYAC,not failed
5,STRRVSVRDKLLVKEVAELEANLPCTCKVHFPDPNKLHCFQLTVTPDEGYYQGGKFQFETEVPDAYNMVPPKVKCLTKIWHPNITETGEICLSLLREHSIDGTGWAPTRTLKDVVWGLNSLFTDLLNFDDPLNIEAAEHHLRDKEDFRNKVDDYIKRYAR,not failed
6,SVDVEFQKAVEDILRKNIKQGKQYAGSDLFDRAFVVAMDPYSGEVLALAGQKLNDKGEFDDYSLGTFTTAYAMGSAVKGSTILGGIMDGAISNKTVFTDQPIALKGTKPKSSWFNRTGAGNRPLDPVGALEISSNSYMYQVAMKMGGAKYVPNGPLRAPLSTFDDMRYYYNQFGLGVKTGIDLPGEQVGYKGDDQTIGKILDFAIGQYDSYTPLQMAQYVSTIANGGSRIAPSMVKEIRNPSTNGDSVGTLATANEPKVLNKIGVSDNDIKTVQKGFYEVTHGSTGTARTVFTSSDYDVAGKTGTADAFYDGPKEGNKMASVWNTTFVGYAPVKKPEIAISVVVPWIYRPYGTDQKTNMKISKEVFDKYFELKKERAESNKDASKVEQPINNKEAAAKAQSEQTEN,failed
7,TAYIIVGLTPKDAEKLQQYGARVASTLAKYSGEVLVKGSVEQLHGKFEHKAQVILEFPSREDAYNWYHSEEYQALISTRDLGMDSQFQLIG,not failed
8,TEDTFWKDETDFNLALTSCYTPLKNALNGGYYGTRGVMLRIARADEVDFRNDISDVYTVNRFTNSNTNSLTQGMFYQFYNALYRTNSIMQKLEEKKEQFSTDFQNSVKGECLFIRGFYLFQLAKEFKDAPLRLTASQSPSTFPLAKSSQADIWAQAKEDLKTAASLLPITNKIGKPTQGAAYAALGKIYVYEENWQEAINVLEPLTQNPYTYKLVEDFNWNFDDTHENNAESIFELLIEDVGGTDLWGDGENINSTQSNTRPKEYAAAEVGGWYEANPTQQIMDIFWKEKDKDGNFDYRARCSVAWDYEGCTYYQRPFREVFAQDKWKTYWILKYQNWKTQKDEPAPPKSFINERAIRYADVLLMLAEAYMNKGALDTSIGYINQIRRRANLNDYSGPITKEGVFEDLVHQRAIEFFVEGERFYDLRRWGLLEQTLKTCDDTRYKNYQTGKSDNINKFNYFPIPAKELDTNPLCTPSEGW,not failed
9,TEERLKEIEAKYDEIAKDWPKKVKHVLHEEHELELTRVQVYTCDKCEEEGTIWSYHCDECDFDLHAKCALNEDTKE,not failed
10,TEQGLQKVLQRLVQTMQRDALVRQTTNQLRESLQVDRVVLYYFYWQWHGQVTFEALSSEEFSILGSTGADECFNDEYAALYLAGRTKAIADIESEPITTCHRDFLRTLQVRANLVVPVLVPKGLWGLLVAHHCQGTHDWKESDIELMQAGAKTLA,failed
11,TFEEDDNMERAAVTGIAFDKNQARINVRGVPDKPGVAYQILGAVADANIEVDMIIQNVGSEGTTDFSFTVPRGDYKQTLEILSERQDSIGAASIDGDDTVCKVSAVGLGMRSHVGVAAKIFRTLAEEGINIQMISTSEIKVSVLIDEKYMELATRVLHKAFNLG,not failed
12,TFGEKLLNAASTRGRLCVGIDPHESLLTSWGLPVNVDGLAEFSRACVEAFADTVALVKPQVAFYERFGSAGFAILEETIQTLRERGCLVVSDAKRGDIGSTMAGYASAWLDPASPLSSDAVTVSPYLGFHSLDPVFELAEQHGRGVFVLAATSNPEARELQDQQNADGVSISQQIVDQAAALNAPYMAQGKAGNIGVVIGATLSKPPRLSTLGGAILMPGVGAQGGTASDVDEIAGDMAHLAFPNVSRSILATGPDIAEMKNSVAKNAADFPGFP,not failed
13,TGQGWMLNLRREKFQDPKVREALNLMFNFEWSNQTLFYGLYTRVDSFWENSYLEAEGAPSEAEAALLKPLVDEGLLPASILTEPPVSPPVSGERQLDRRNLRAASKLLDEAGWTVGSDGMRRNAKGEVLRVEFLNDSQTFDRVISPFVENLRALGVDALMTRVDNAQMESRTRPPSYDFDITTGNARTNYISGAELKQYYGSETADISAFNIMGLKDKAVDRMIEVVLAAKTSEELEVATKALDRVLRLQRFWVPQWYKA,failed
14,THVVCSDSGLEVLYQSCDPLQDFGFSVEKCSKQLKSNINIRFGIILREDIKELFLDLALMSQGSSVLNFSYPICEAALPKFSFCGRRKGEQIYYAGPVNNPEFTIPQGEYQVLLELYTEKRSTVACANATIMCS,not failed
15,TIAFIVNKNLLHGSEIPKSWADLKTGKYKVSIGDVSTAAQAANGVLAASFAMKGDESNIEPGLALFTDLAKQKRLSLANPTIQTIEKGEIEVGVVWDFNGLSYRTKMAKPDDYVVLIPSDGSVISGYTTIINKYAKHPNAAKLAREYTFSDAGQ,failed
16,TIDLRMQQYAEEAMVKQMKEVLQPIFDKEKRGRSYAPFSRDITSDEQRSILLRAMKQTDRWREMKKAGISESEIRASFNKKRKMQVWNWRGTIDTVMSPLDSIKYLKGILRTGFMAMNPHNGHIKAYVGGINFRNFQYDMVSQGRRQVGSTIKPFLYSLSMLEGISPCDEMLHVSQTLFTESGKAWTPKNTGARRTGEMVSIKWGLQNSSNWVTAYLMGRTSPYTFVRLLRSYGLSGYLEPSLSICLGTPDVSVQEMVSAYTTFVNKGIRVNPLPITRIEDQYGNVVAQFSPNMVEVLPPDAAYKMLYMLKSVVDGGTGSRLRYRYGFKLDMGGKTGTTQNNSDGWFVGFTPSLVAGCWVGGEDRSVHFDSMSNGQGAASALPIFAEFLKRVYADPKLGYTTE,failed
17,TIDRGIQTQIESLVERWNSEFKRSDIRNLAILVIDIRTNQAIAYCGNVHFDKEQSGNQVDVIRSPRSTGSILKPFLYYAMLQEGEILPNTLLPDIPVNINGFTPQNFNLQFEGAVPASEAIARSLNIPSVTMLQRYGVPKFHSFLKQIGLTTLNRPSSHYGLSLILGGAEATLWDITSAYANMGRSLNRLPQFPCTLLLSDSTSVHRPSFQSGAVWQTFDAIKEVNRPEEIDWRTIPSMQTIAWKTGTSYGFRDAWAVGVTPKYAVGVWVGNATGEGKPGLVGARTAGPVLFDVFNLL,failed
18,TKDFTWQTDWTFSLNNEKIKELAGGATYDSTGPWMVGEPLNSFYDFQYDRIWQNTQEDNHLMDVYRSLGLTFLPGQYKIVDQ,failed
19,TKEHRAAARKIAGESFVLLKNEGLSPTLAPVLPLSPTGTIAVIGPLANTRSNMPGTWSVAAVLDKSPSLVEGLTEWVGNQGKILYAKGSNLIGDAAYEERATMFGRSLNRDNRTDQQLLDEALKIASQADVIVAALGESSEMSGESSSRTNLNLPDVQHTLLEALLKTGKPVVLVLFTGRPLVLNWEQEHVPAILNVWFGGSEAGPAIGDVLFGAVNPGGKLTMTFPKSVGQIPLYYAHKNTGRPLKEGKWFEKFRSNYLDVDNDALYPFGYGLSYTTF,failed
20,TKKDVHDLFLNHVNSNAVKTRKMMGEYIIYYDSVVIGGLYDNRLLVKATKSVRHQLQDNTLVSPYPGAKEMILIPDITEAINLTNLFELIKNDLKN,failed

# From a protein production outcome set (Wang et al. 2014)
